Experimental data from patent US20190382504A1.

Legend:
Test in all cases: FACS, peptide-pulsed T2 cells
[1] = target: ESO157 A1 peptide (…)/HLA-A*02:01 complex on T2 cells (human)
[2] = target: ESO157 A3 peptide (…)/HLA-A*02:01 complex on T2 cells (human)
[3] = target: ESO157 A4 peptide (…)/HLA-A*02:01 complex on T2 cells (human)
[4] = target: ESO157 A5 peptide (…)/HLA-A*02:01 complex on T2 cells (human)
[5] = target: ESO157 A6 peptide (…)/HLA-A*02:01 complex on T2 cells (human)
[6] = target: ESO157 A7 peptide (…)/HLA-A*02:01 complex on T2 cells (human)
[7] = target: ESO157 A8 peptide (…)/HLA-A*02:01 complex on T2 cells (human)
[8] = target: ESO157 wild type peptide (…)/HLA-A*02:01 complex on cells (human)
[9] = target: HLA-A*02:01 on T2 cells without peptide loading (human)

| Substance | MFI [1] | MFI [2] | MFI [3] | MFI [4] | MFI [5] | MFI [6] | MFI [7] | MFI [8] | MFI [9] |
| --- | --- | --- | --- | --- | --- | --- | --- | --- | --- |
| KO7 helper phage | 92 | 100 | 97 | 101 | 91 | 84 | 94 | 136 | 97 |
| antibody BB7.2 | 67000 | 66100 | 60300 | 59000 | 55800 | 72900 | 75000 | 76000 | 53100 |
